Laboratory results reported in PMC4783296, “Structural basis underlying CAC RNA recognition by the RRM domain of dimeric RNA-binding protein RBPMS”.

Key:
RBPMS RRM WT = RBPMS RRM WT (human, UniProt Q93062 14-111); assay: ITC; approaching 2:1 RRM:RNA; ITC: 20 mM Tris-HCl pH 7.5, 100 mM NaCl, 25 C; 0.03-0.05 mM protein in cell, 0.26-0.5 mM RNA in syringe, single-site model; conditions: protein: recombinant; tags: 6His-SUMO removed with Ulp1; chain copies: 2; single strand
RBPMS RRM K100E = RBPMS RRM K100E (human, UniProt Q93062 14-111, K100E); assay: ITC; ITC: 20 mM Tris-HCl pH 7.5, 100 mM NaCl, 25 C; 0.03-0.05 mM protein in cell, 0.26-0.5 mM RNA in syringe, single-site model; conditions: protein: recombinant; tags: 6His-SUMO removed with Ulp1; single strand
Sequence of RBPMS RRM K100E (Q93062 14-111 K100E): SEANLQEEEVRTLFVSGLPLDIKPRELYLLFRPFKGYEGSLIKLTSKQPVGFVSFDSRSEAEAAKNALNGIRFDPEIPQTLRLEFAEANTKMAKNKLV

RBPMS RRM F65A = RBPMS RRM F65A (human, UniProt Q93062 14-111, F65A); assay: as above; conditions: protein: recombinant; tags: 6His-SUMO removed with Ulp1; single strand
Sequence of RBPMS RRM F65A (Q93062 14-111 F65A): as the sequence (Q93062 14-111 K100E) above, with F52A, E87K counted along it

RBPMS RRM T103A/K104A = RBPMS RRM T103A/K104A (human, UniProt Q93062 14-111, T103A;K104A); assay: as above; conditions: protein: recombinant; tags: 6His-SUMO removed with Ulp1; single strand
Sequence of RBPMS RRM T103A/K104A (Q93062 14-111 T103A/K104A): as the sequence (Q93062 14-111 K100E) above, with E87K, T90A, K91A counted along it

RBPMS RRM F27A = RBPMS RRM F27A (human, UniProt Q93062 14-111, F27A); assay: as above; conditions: protein: recombinant; tags: 6His-SUMO removed with Ulp1; single strand
Sequence of RBPMS RRM F27A (Q93062 14-111 F27A): as the sequence (Q93062 14-111 K100E) above, with F14A, E87K counted along it

RBPMS RRM E97A/K100A = RBPMS RRM E97A/K100A (human, UniProt Q93062 14-111, E97A;K100A); assay: ITC; Kd printed only in figure; ITC: 20 mM Tris-HCl pH 7.5, 100 mM NaCl, 25 C; 0.03-0.05 mM protein in cell, 0.26-0.5 mM RNA in syringe, single-site model; conditions: protein: recombinant; tags: 6His-SUMO removed with Ulp1; single strand
Sequence of RBPMS RRM E97A/K100A (Q93062 14-111 E97A/K100A): as the sequence (Q93062 14-111 K100E) above, with E84A, E87A counted along it

Sequence of RBPMS RRM WT (Q93062 14-111): as the sequence (Q93062 14-111 K100E) above, with E87K counted along it

Q: Which Kd (RBPMS RRM WT) does the source give for GCACUUUCAACUUCACU (ssRNA) [ETF1 17-nt RNA] here?
A: 900 nM

Q: Does GCACUUUCAACUUCACU (ssRNA) [ETF1 17-nt RNA] bind (RBPMS RRM K100E)?
A: no binding

Q: Does GCACUUUCAACUUCACU (ssRNA) [ETF1 17-nt RNA] bind (RBPMS RRM F65A)?
A: no binding

Q: Does GCACUUUCAACUUCACU (ssRNA) [ETF1 17-nt RNA] bind (RBPMS RRM T103A/K104A)?
A: no binding

Q: Does GCACUUUCAACUUCACU (ssRNA) [ETF1 17-nt RNA] bind (RBPMS RRM F27A)?
A: no binding

Q: What about the binding signal (RBPMS RRM E97A/K100A) of the same binder?
A: ~10 fold reduced affinity vs WT
